The text below walks through data of paper PMC10350833.

In one experiment the target is GFP-p62^S349A (human) (UniProt Q13501).
The target of a further experiment is GFP-p62^S349E (human) (UniProt Q13501).

For “mCherry-tagged KEAP1 (from UniProt Q14145 1-624) (natural protein)”, the FLIP: signal intensity of mCherry-KEAP1 in GFP-p62 bodies of the non-bleached area, percent of the baseline value at 30 min after photobleaching (efflux of KEAP1) with GFP-p62^S349A (human) is 58.2%; with GFP-p62^S349E (human), 72%.
